The source of these data is patent EP3904368A2.

This assay deals with Acetylcholine receptor on AchR-overexpressed TE671 cells. In words: cell-based or functional assay.

With Synake (peptide), the IC50 value for AchR (inhibition of AchR action, TE671 cells) came out at 75 µM.
